The text below walks through data of patent US20180222961A1 (IMMATICS BIOTECHNOLOGIES, published 2018).

Some results are limits rather than exact numbers.

B1: SLLLPSIFL (peptide)
peptide: SLLLPSIFL
B2: YTFRYPLSL (peptide)
peptide: YTFRYPLSL
B3: KLFDTQQFL (peptide)
peptide: KLFDTQQFL
B4: GVATRVDAI (peptide)
peptide: GVATRVDAI
B5: MIPTFTALL (peptide)
peptide: MIPTFTALL
B6: FLDPDRHFL (peptide)
peptide: FLDPDRHFL
B7: RQPNILVHL (peptide)
peptide: RQPNILVHL
B8: VLLAGFKPPL (peptide)
peptide: VLLAGFKPPL
B9: FAHHGRSL (peptide)
peptide: FAHHGRSL
B10: ALQAFEFRV (peptide)
peptide: ALQAFEFRV
B11: YASEGVKQV (peptide)
peptide: YASEGVKQV
B12: KVVSVLYNV (peptide)
peptide: KVVSVLYNV
B13: STIPALHEI (peptide)
peptide: STIPALHEI
B14: ALMRLIGCPL (peptide)
peptide: ALMRLIGCPL
B15: TTYEGSITV (peptide)
peptide: TTYEGSITV
B16: GLLSLTSTLYL (peptide)
peptide: GLLSLTSTLYL
B17: TLLKALLEI (peptide)
peptide: TLLKALLEI
B18: PLPRPGAVL (peptide)
peptide: PLPRPGAVL
B19: DTDSSVHVQV (peptide)
peptide: DTDSSVHVQV
B20: MMEEMIFNL (peptide)
peptide: MMEEMIFNL
B21: RMTTQLLLL (peptide)
peptide: RMTTQLLLL
B22: GLLQELSSI (peptide)
peptide: GLLQELSSI
B23: RLLDFINVL (peptide)
peptide: RLLDFINVL
B24: YLEDTDRNL (peptide)
peptide: YLEDTDRNL
B25: SAIPFSMTL (peptide)
peptide: SAIPFSMTL
B26: SLGKHTVAL (peptide)
peptide: SLGKHTVAL
B27: SLLDLYQL (peptide)
peptide: SLLDLYQL
B28: TISSLTHEL (peptide)
peptide: TISSLTHEL
B29: VLQGLLRSL (peptide)
peptide: VLQGLLRSL
B30: ALFKAWAL (peptide)
peptide: ALFKAWAL
B31: YMVHIQVTL (peptide)
peptide: YMVHIQVTL
B32: ISVPAKTSL (peptide)
peptide: ISVPAKTSL
B33: SLPRFQVTL (peptide)
peptide: SLPRFQVTL
B34: IMFDDAIERA (peptide)
peptide: IMFDDAIERA
B35: ALIYNLVGI (peptide)
peptide: ALIYNLVGI
B36: YLTDLQVSL (peptide)
peptide: YLTDLQVSL
B37: KVLGVNVML (peptide)
peptide: KVLGVNVML
B38: SVTESTHHL (peptide)
peptide: SVTESTHHL
B39: VSSSLTLKV (peptide)
peptide: VSSSLTLKV
B40: RLWDWVPLA (peptide)
peptide: RLWDWVPLA
B41: FLIEELLFA (peptide)
peptide: FLIEELLFA
B42: YLVTKVVAV (peptide)
peptide: YLVTKVVAV
B43: REPGDIFSEL (peptide)
peptide: REPGDIFSEL
B44: AEQDPDELNKA (peptide)
peptide: AEQDPDELNKA
B45: TEAVVTNEL (peptide)
peptide: TEAVVTNEL
B46: REEFVSIDHL (peptide)
peptide: REEFVSIDHL
B47: HESSSHHDL (peptide)
peptide: HESSSHHDL
B48: SDSQVRAF (peptide)
peptide: SDSQVRAF
B49: KEAIREHQM (peptide)
peptide: KEAIREHQM
B50: EEQYIAQF (peptide)
peptide: EEQYIAQF
B51: REKFIASVI (peptide)
peptide: REKFIASVI
B52: SLRLKNVQL (peptide)
peptide: SLRLKNVQL
B53: DMKYKNRV (peptide)
peptide: DMKYKNRV
B54: VGREKKLAL (peptide)
peptide: VGREKKLAL
B55: MAAVKQAL (peptide)
peptide: MAAVKQAL
B56: DMKKAKEQL (peptide)
peptide: DMKKAKEQL
B57: ALKARTVTF (peptide)
peptide: ALKARTVTF
B58: LNKQKVTF (peptide)
peptide: LNKQKVTF
B59: MPNLRSVDL (peptide)
peptide: MPNLRSVDL
B60: DVKKKIKEV (peptide)
peptide: DVKKKIKEV
B61: LPRLKAFMI (peptide)
peptide: LPRLKAFMI

One assay concerns the target T1, HLA-A*02:01 (human).
T1 construct: also called peptide-receptive MHC molecules
Description: UV-exchange b2m ELISA; exchange-yield grade. The essentials: (§1)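 Peptide–MHC complexes formed by UV-ligand exchange, in which a UV-cleavable peptide is replaced by the test peptide. Exchange yield measured by ELISA detecting β2m of stabilised complexes captured on streptavidin, against refolded HLA-A*02:01/MLA-001 monomer standards (15-500 ng/ml); samples diluted 100-fold.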
(In general: In an ELISA, binding on a coated surface is turned into a signal by an enzyme label.)
B1 displayed a peptide exchange yield greater than 75%.

In turn, B2 gave a peptide exchange yield of 50 to 75%.

The molecule B3 returned a peptide exchange yield greater than 75%.

Take B4: the peptide exchange yield was in the range of 20 to 50%.

Molecule B5 showed a peptide exchange yield of 50 to 75%. B6: the peptide exchange yield is greater than 75%.

Turning to B7, the peptide exchange yield is 20 to 50%.

In the case of B8, the peptide exchange yield fell in the range of 10 to 20%. Take B9: the peptide exchange yield was in the range of 10 to 20%. In turn, B10 yielded a peptide exchange yield greater than 75%.

Regarding B11, the peptide exchange yield is 50 to 75%. B12 displayed a peptide exchange yield greater than 75%. In the case of B13, the peptide exchange yield was in the range of 50 to 75%.

For B14, the peptide exchange yield was greater than 75%. For B15, the peptide exchange yield was greater than 75%. Consider B16, for which the peptide exchange yield was greater than 75%. With B17, the peptide exchange yield was greater than 75%. Take B18: the peptide exchange yield fell in the range of 10 to 20%. Same read-out and setting: in the case of B19 it was 10 to 20%; in that of B20, greater than 75%.

B21 gave a peptide exchange yield of 50 to 75%.

Molecule B22 gave a peptide exchange yield greater than 75%. Regarding B23, the peptide exchange yield is greater than 75%. Molecule B24 came in with a peptide exchange yield greater than 75%. The same measure, in the same setting: in the case of B25 it was 50 to 75%; in that of B26, 50 to 75%; in that of B27, 20 to 50%. Molecule B28 had a peptide exchange yield greater than 75%. Regarding B29, the peptide exchange yield is greater than 75%.

Consider B30, for which the peptide exchange yield was greater than 75%.

Consider B31, for which the peptide exchange yield is greater than 75%.

B32 yielded a peptide exchange yield of 10 to 20%. Consider B33, for which the peptide exchange yield is greater than 75%. B34 displayed a peptide exchange yield greater than 75%. On to B35, for which the peptide exchange yield was greater than 75%.

B36: the peptide exchange yield is greater than 75%.

In turn, B37 gave a peptide exchange yield greater than 75%. The molecule B38 had a peptide exchange yield of 50 to 75%.

Regarding B39, the peptide exchange yield is 10 to 20%. B40 returned a peptide exchange yield greater than 75%.

B41 gave a peptide exchange yield greater than 75%.

B42 had a peptide exchange yield greater than 75%.

In another assay the target is T2, HLA-B*44:02 (human).
T2 construct: also called peptide-receptive MHC molecules
Briefly: UV-exchange b2m ELISA; exchange-yield grade. The essentials:
as §1
B43 yielded a peptide exchange yield of 20 to 50%. B44 came in with a peptide exchange yield of 20 to 50%.

In the case of B45, the peptide exchange yield lay in the range of 20 to 50%.

B46: the peptide exchange yield was 20 to 50%. Consider B47, for which the peptide exchange yield lay within 20 to 50%.

B48: the peptide exchange yield lay in the range of 10 to 20%. With B49, the peptide exchange yield is 20 to 50%. With B50, the peptide exchange yield lay in the range of 10 to 20%. B51 registered a peptide exchange yield of 20 to 50%.

Another assay concerns the target T3, human recombinant HLA-B*08:01 and b2m (human).
T3 construct: expressed in E. coli and purified; stability of the peptide-MHC complex read as b2m associated with the heavy chain over time at 37 C
Briefly: pMHC dissociation assay at 37 C; mean half-life grade. The protocol: Peptide-MHC stability assays for HLA-B*08:01 peptides were performed. The data were obtained using a proximity based, homogenous, real-time assay in order to measure the dissociation of peptides from HLA class I molecules. First, human recombinant HLA-B*08:01 and b2m were expressed in E. coli and purified in a series of liquid chromatography based steps (Ferre et al., 2003; Ostergaard et al., 2001). Then, the stability of a peptide-MHC complex (pMHC) was determined by measuring the amount of b2m associated with the MHC heavy chain over time at 37° C. (Harndahl et al., 2012). The stability of each pMHC, expressed as the half life of b2m associated with the respective heavy chain, was calculated by fitting the data to a one-phase dissociation equation.
Turning to B52, the “mean half-life (T1/2) of peptide-MHC complex” value (“mean half-life” for short) fell in the range of 2 to 4 h. In the case of B53, the “mean half-life” value was in the range of 2 to 4 h. Take B54: the “mean half-life” value is 4 to 6 h.

As for B55, the “mean half-life” value lay within 4 to 6 h.

For B56, the “mean half-life” value fell in the range of 2 to 4 h. As to B57, the “mean half-life” value lay in the range of 6 to 10 h.

Turning to B58, the “mean half-life” value is greater than 10 h. For B59, the “mean half-life” value was in the range of 4 to 6 h. The same measure, in the same setting: in the case of B60 it was 2 to 4 h; in that of B61, 4 to 6 h.
